Test results from PMC10758103.

Target: T1, p32 stably overexpressed from lentiviral pCDH-p32, Q07021
T1 chain: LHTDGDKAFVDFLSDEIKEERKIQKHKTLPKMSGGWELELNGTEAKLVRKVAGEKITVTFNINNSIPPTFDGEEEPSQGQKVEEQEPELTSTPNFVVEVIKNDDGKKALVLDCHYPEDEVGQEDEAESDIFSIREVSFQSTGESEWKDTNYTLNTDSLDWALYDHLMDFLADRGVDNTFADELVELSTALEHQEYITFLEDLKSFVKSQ
Assay: cross-linking; 786-O-pCDH and 786-O-p32 cells treated with gradients of elesclomol and CuSO4; 0.1 mM disuccinimidyl suberate (DSS) on cells, 30 minutes at room temperature, quenched with 50 mM Tris; 8% SDS-PAGE and western blot
Details: remark: other sources report otherwise

B1: p32 stably overexpressed from lentiviral pCDH-p32, Q07021 74-282 (natural protein)
chain: T1 chain
Binder B1 has a stoichiometry N of 2.
